Here are results for 167 variants from the RNAGym collection of RNA variant scans (doi:10.7554/elife.90254).

Sequences and labels used below:
B1: OR4K15 (parent)
chain: GUUAACGGUCAUAGGCCAUGGAAACUAGGAGCACCAUUUCGCUGCCAGUGAAGAAAUGAACAAAGAAAAUCUGGGCCAGGCAGGCAUCAAAAGAAAUAGUCUUGCGCUCAACCAGAAAGUCUGUAAUCAUUUUAAGGGUA

The variants in this data set derive from B1. The data set can be described thus: self-cleavage, relative activity (ratio to wild type); higher = more cleavage; in vitro, sequencing; the parent is a self-cleaving ribozyme.
For A11U A60G, the self-cleavage was determined as 1.16.
With A11G C113G, the self-cleavage came to 0.04.
Turning to U12A A90G, the self-cleavage came out at 0.57.
The same measure for U12A A66G: 0.9.
The same measure for A11G U124C: 0.34; for A11G U124A: 0.66; for A11U A51U: 0.87.
The same measure for A11U A51C: 1.16; for U12A: 1.19.
Regarding U12C, the self-cleavage was found to be 1.01.
The value for A11U A82G was 0.63; that for A11G G93A was 2.04.
The value for A11U U87A was 1.75; that for A11U A63G was 0.86; that for A11G U12A was 1.21.
The same measure for U12A A111G: 0.08; for A11U A114U: 0.05.
On to A11U A114G, for which the self-cleavage was 0.61.
The same measure for A11U G58A: 0.75.
The value for A11G A78U was 0.26.
With A11G A78G, the self-cleavage came out at 0.54.
With U12C A52G, the self-cleavage came to 0.83.
The same measure for U12A A60G: 1.36; for U12A A60C: 1.18.
The same measure for A11U U100A: 0.62; for A11G U70A: 0.92; for A11G U70C: 0.76.
The same measure for U12A U70A: 0.56.
As for A11G U39C, the self-cleavage worked out at 0.96.
The value for U12A A89G was 1.57; that for A11G C121A was 1.62.
For the variant A11U U124C, the self-cleavage is 1.14.
As for U12C A18C, the self-cleavage turned out to be 0.58.
The value for A11G A96C was 0.82.
For U12A A63U, the self-cleavage came out at 1.88.
In the case of A11U U108G, the self-cleavage worked out at 0.08.
The same measure for A11G A135U: 0.99; for A11G A135G: 1.41.
For A11G A134G, the self-cleavage came to 0.88.
The value for A11G A134C was 0.5; that for A11U U72A was 0.53; that for A11U U72C was 0.35.
The value for A11U G75C was 0.16; that for U12C A23G was 0.76.
On to A11U A56G, for which the self-cleavage is 1.1.
Take A11G U38A: the self-cleavage is 0.86.
The value for A11G U38C was 0.65.
With A11G U130C, the self-cleavage was determined as 0.53.
The value for U12A A110C was 0.34; that for U12A A110U was 1.63; that for A11G C71A was 0.71.
The value for A11G U72A was 0.38; that for A11U G29A was 0.94; that for A11U A116C was 0.23.
The value for A11U A116G was 1; that for A11U A118U was 0.51.
As to A11U A118G, the self-cleavage turned out to be 0.59.
The value for A11G G84U was 0.53.
For the variant A11G U26C, the self-cleavage stood at 1.27.
Consider A11G C61G, for which the self-cleavage was found to be 1.
The same measure for A11G A129C: 0.66; for A11U A111U: 0.06; for A11U A111G: 0.06.
Regarding A11U A18G, the self-cleavage worked out at 1.38.
The value for U12A U49C was 1.59.
In the case of U12A U49A, the self-cleavage is 0.48.
The value for U12A A30U was 1.11; that for A11U A23G was 0.87.
As to A11G A110G, the self-cleavage was determined as 0.12.
Regarding U12A A82U, the self-cleavage stood at 0.3.
The same measure for A11U C61A: 1.92.
The value for U12C A22U was 0.66; that for A11U U97C was 0.56.
Regarding U12A A51G, the self-cleavage was determined as 0.95.
The value for U12A A51U was 1.05.
The same measure for A11G C107G: 0.05; for U12A U38G: 1.9; for U12A A92G: 1.37.
Turning to A11U A78C, the self-cleavage worked out at 0.22.
As for U12A A96G, the self-cleavage worked out at 1.43.
Turning to U12A A96U, the self-cleavage came to 1.67.
The same measure for A11U A54U: 2.18; for A11U A90G: 0.51; for U12A A67G: 1.56.
As to A11U U122C, the self-cleavage amounted to 0.19.
The same measure for U12C A13U: 0.95; for U12C A13G: 1.16.
The value for U12C A51U was 1.38.
Take A11U U39C: the self-cleavage was found to be 1.11.
For the variant A11U U39A, the self-cleavage is 1.34.
The value for A11G C88U was 1.54; that for A11U U132C was 0.89; that for A11U U127C was 1.06.
The same measure for A11G A126U: 1.17; for A11U A91G: 0.78.
The value for A11U A55G was 0.82.
Regarding A11U A52G, the self-cleavage was 1.25.
Regarding A11U A52U, the self-cleavage stood at 1.54.
On to A11G U49C, for which the self-cleavage was 0.39.
As for A11U A66G, the self-cleavage stood at 2.37.
The value for U12C A54G was 1.22.
The same measure for A11U A92G: 1; for A11G U102C: 1.41; for U12A A91U: 1.64.
For the variant A11G A92C, the self-cleavage came out at 0.7.
The same measure for U12A A59G: 1.26; for A11G A94U: 1.2; for A11G A94G: 0.95.
As to U12A A13G, the self-cleavage is 1.28.
In the case of A11U A96G, the self-cleavage amounted to 1.31.
The same measure for A11U U19C: 1.85; for A11U U19A: 1.38.
The same measure for A11U: 0.87; for U12A U43A: 1.63; for U12A U43C: 0.49.
The same measure for A11U A140U: 1.3; for A11G C101U: 0.38; for U12C A36G: 1.44.
As for A11G A114G, the self-cleavage is 0.46.
Turning to A11G A91U, the self-cleavage was found to be 1.22.
The same measure for A11G A91G: 0.73.
The same measure for A11G A140G: 0.96; for A11G A140U: 1.31; for U12A A36C: 1.82.
The same measure for U12A A36G: 1.05; for A11G U87A: 1.05.
As for U12C A47G, the self-cleavage stood at 1.3.
The same measure for U12A U102A: 1.08; for A11G U97C: 1.42; for A11G G137A: 0.53.
The same measure for A11G A82U: 0.2; for A11U C88A: 1.99; for A11G C112U: 0.05.
The same measure for A11G C112A: 0.02; for A11G G41A: 0.82.
Regarding A11G G41U, the self-cleavage stood at 1.91.
For A11G A111G, the self-cleavage turned out to be 0.04.
The value for A11G A125G was 0.38.
For A11G U127A, the self-cleavage was determined as 1.17.
The value for A11G U139C was 2.37; that for A11G A118U was 0.2.
The value for A11G A86G was 0.76; that for A11G A86U was 1.82; that for A11G A90U was 1.69.
For the variant A11G A90G, the self-cleavage worked out at 1.04.
The value for A11G C17A was 0.61; that for A11G U108A was 0.03.
The same measure for A11U U57C: 0.73; for A11U U133C: 1.36; for A11G G31C: 1.04.
Consider A11U A117G, for which the self-cleavage turned out to be 1.41.
The same measure for U12A U122C: 1.26.
As to U12A A52G, the self-cleavage is 1.14.
As for U12A A56G, the self-cleavage was found to be 1.58.
As for A11U U49C, the self-cleavage amounted to 1.38.
The same measure for A11G U131C: 0.79; for A11G A116C: 0.1.
The value for A11G U122C was 1.
The value for A11U A110U was 1.19; that for U12A A54U was 1.28; that for A11U A30G was 1.23.
With A11G U120C, the self-cleavage is 0.35.
The value for A11U A89U was 1.59; that for A11U A89G was 1.21.
Take A11G U103C: the self-cleavage amounted to 0.95.
Turning to A11G G106A, the self-cleavage turned out to be 0.06.
The value for A11U A86G was 1.35.
